Experimental data reported in patent US20240368283A1.

Columns and labels:
[1] = target: human FcγRIIβ (human) (UniProt P31994); assay: SPR, antibody captured on ProA/G HC30M chip, recombinant human FcγRIIβ injected (4 nM-5 uM); average kinetic KD
[2] = target: Hu FcγRIIA_H131 (human) (UniProt P12318); assay: SPR-type chip kinetics; antibody captured on protein A/G chip, receptor as analyte
[3] = target: Hu FcγRIIA_R131 (human) (UniProt P12318); assay: as above
Hu FcγRIIA_R131 (human), sequence (P12318 36-218 H167R limits assumed): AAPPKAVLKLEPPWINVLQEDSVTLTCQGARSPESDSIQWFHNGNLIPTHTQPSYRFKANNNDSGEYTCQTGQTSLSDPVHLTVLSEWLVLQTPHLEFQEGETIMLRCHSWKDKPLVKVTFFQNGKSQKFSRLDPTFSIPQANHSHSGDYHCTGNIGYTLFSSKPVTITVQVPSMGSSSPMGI

Hu FcγRIIA_H131 (human), sequence (P12318 36-218 limits assumed): as the sequence (P12318 36-218 H167R limits assumed) above, with R132H counted along it
human FcγRIIβ (human), sequence (P31994 46-217 limits assumed): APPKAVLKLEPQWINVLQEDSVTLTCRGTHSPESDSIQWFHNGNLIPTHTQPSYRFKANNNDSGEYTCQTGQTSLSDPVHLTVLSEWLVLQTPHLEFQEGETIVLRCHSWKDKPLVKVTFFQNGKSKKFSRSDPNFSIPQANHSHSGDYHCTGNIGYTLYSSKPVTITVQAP

Row | Kd [1] [µM] | Kd [2] [µM] | Kd [3] [µM] | Substance
1 | 0.000407 | – | – | 2B6 (antibody)
2 | – | 1 | 1.55 | IgG1 WT (antibody)
